Test results as given in the RNAGym collection of RNA variant scans (doi:10.7554/elife.80360).

B1: Hairpin Ribozyme (parent)
chain: GUCCUCUUUCACGUGCGCGUGAAAGAGAGAAGUGAACCAGAGAAACACACGUUGUGGUAUAUUACCUGGUA

Variants of: B1
Assay: self-cleavage, relative activity (ratio to wild type); higher = more cleavage; co-transcriptional

In order of falling self-cleavage:
1. GUCCUCUUUCACGUGCGCGUGAAAGAGAGAAGUGAACCAGAGAAACACACGUUGUGGUAUAUUACCUGGGG  1.82
2. GUCCUCUUUCACGUGCGCGUGAAAGAGAGAAGUGAACCAGAGAAACACACGUUGUGGUAUAUUACCUGGAU  1.63
3. GUCCUCUUUCACGUGCGCGUGAAAGAGAGAAGUGAACCAGAGAAACACACGUUGUGGUAUAUUACCUGGAG  0.886
4. GUCCUCUUUCACGUGCGCGUGAAAGAGAGAAGUGAACCAGAGAAACACACGUUGUGGUAUAUUAGCUGGUC  0.697
5. GUCCUCUUUCACGUGCGCGUGAAAGAGAGAAGUGAACCAGAGAAACACACGUUGUGGUAUAUUAACUGGAA  0.686
6. GUCCUCUUUCACGUGCGCGUGAAAGAGAGAAGUGAACCAGAGAAACACACGUUGUGGUAUAUUACCUGCGA  0.657
7. GUCCUCUUUCACGUGCGCGUGAAAGAGAGAAGUGAACCAGAGAAACACACGUUGUGGUAUAUUACUUGGCA  0.506
8. GUCCUCUUUCACGUGCGCGUGAAAGAGAGAAGUGAACCAGAGAAACACACGUUGUGGUAUAUUACUUGGUG  0.484
9. GUCCUCUUUCACGUGCGCGUGAAAGAGAGAAGUGAACCAGAGAAACACACGUUGUGGUAUAUUACAUGGUC  0.445
10. GUCCUCUUUCACGUGCGCGUGAAAGAGAGAAGUGAACCAGAGAAACACACGUUGUGGUAUAUUACUUGGUU  0.417
11. GUCCUCUUUCACGUGCGCGUGAAAGAGAGAAGUGAACCAGAGAAACACACGUUGUGGUAUAUUACCGGGUC  0.37
12. GUCCUCUUUCACGUGCGCGUGAAAGAGAGAAGUGAACCAGAGAAACACACGUUGUGGUAUAUUACCCGGUC  0.359
13. GUCCUCUUUCACGUGCGCGUGAAAGAGAGAAGUGAACCAGAGAAACACACGUUGUGGUAUAUUACUUGGAA  0.356
14. GUCCUCUUUCACGUGCGCGUGAAAGAGAGAAGUGAACCAGAGAAACACACGUUGUGGUAUAUUACCAGUUA  0.321
15. GUCCUCUUUCACGUGCGCGUGAAAGAGAGAAGUGAACCAGAGAAACACACGUUGUGGUAUAUUACAUGGCA  0.305
16. GUCCUCUUUCACGUGCGCGUGAAAGAGAGAAGUGAACCAGAGAAACACACGUUGUGGUAUAUUACCUAGUA  0.282
17. GUCCUCUUUCACGUGCGCGUGAAAGAGAGAAGUGAACCAGAGAAACACACGUUGUGGUAUAUUUCCUGGAA  0.257
18. GUCCUCUUUCACGUGCGCGUGAAAGAGAGAAGUGAACCAGAGAAACACACGUUGUGGUAUAUUACCUUGUA  0.254
19. GUCCUCUUUCACGUGCGCGUGAAAGAGAGAAGUGAACCAGAGAAACACACGUUGUGGUAUAUUAUCUAGUA  0.249
20. GUCCUCUUUCACGUGCGCGUGAAAGAGAGAAGUGAACCAGAGAAACACACGUUGUGGUAUAUUACCAGGCA  0.247
21. GUCCUCUUUCACGUGCGCGUGAAAGAGAGAAGUGAACCAGAGAAACACACGUUGUGGUAUAUUACAUGCUA  0.239
22. GUCCUCUUUCACGUGCGCGUGAAAGAGAGAAGUGAACCAGAGAAACACACGUUGUGGUAUAUUAGCUGGUU  0.219
23. GUCCUCUUUCACGUGCGCGUGAAAGAGAGAAGUGAACCAGAGAAACACACGUUGUGGUAUAUUACGCGGUA  0.219
24. GUCCUCUUUCACGUGCGCGUGAAAGAGAGAAGUGAACCAGAGAAACACACGUUGUGGUAUAUUACCUCGUA  0.212
25. GUCCUCUUUCACGUGCGCGUGAAAGAGAGAAGUGAACCAGAGAAACACACGUUGUGGUAUAUUACCUCCUA  0.206
26. GUCCUCUUUCACGUGCGCGUGAAAGAGAGAAGUGAACCAGAGAAACACACGUUGUGGUAUAUUACCCGCUA  0.188
27. GUCCUCUUUCACGUGCGCGUGAAAGAGAGAAGUGAACCAGAGAAACACACGUUGUGGUAUAUUAGCUGGUG  0.187
28. GUCCUCUUUCACGUGCGCGUGAAAGAGAGAAGUGAACCAGAGAAACACACGUUGUGGUAUAUUACAUGGUU  0.184
29. GUCCUCUUUCACGUGCGCGUGAAAGAGAGAAGUGAACCAGAGAAACACACGUUGUGGUAUAUUACCCCGUA  0.178
30. GUCCUCUUUCACGUGCGCGUGAAAGAGAGAAGUGAACCAGAGAAACACACGUUGUGGUAUAUUACAUGGGA  0.176
31. GUCCUCUUUCACGUGCGCGUGAAAGAGAGAAGUGAACCAGAGAAACACACGUUGUGGUAUAUUACACGGUA  0.159
32. GUCCUCUUUCACGUGCGCGUGAAAGAGAGAAGUGAACCAGAGAAACACACGUUGUGGUAUAUUACAUGUUA  0.156
33. GUCCUCUUUCACGUGCGCGUGAAAGAGAGAAGUGAACCAGAGAAACACACGUUGUGGUAUAUUACCUCAUA  0.152
34. GUCCUCUUUCACGUGCGCGUGAAAGAGAGAAGUGAACCAGAGAAACACACGUUGUGGUAUAUUACCCGGUG  0.132
35. GUCCUCUUUCACGUGCGCGUGAAAGAGAGAAGUGAACCAGAGAAACACACGUUGUGGUAUAUUUCCGGGUA  0.13
36. GUCCUCUUUCACGUGCGCGUGAAAGAGAGAAGUGAACCAGAGAAACACACGUUGUGGUAUAUUACAUAGUA  0.126
37. GUCCUCUUUCACGUGCGCGUGAAAGAGAGAAGUGAACCAGAGAAACACACGUUGUGGUAUAUUAGCGGGUA  0.0652
38. GUCCUCUUUCACGUGCGCGUGAAAGAGAGAAGUGAACCAGAGAAACACACGUUGUGGUAUAUUACGUUGUA  0.0439
39. GUCCUCUUUCACGUGCGCGUGAAAGAGAGAAGUGAACCAGAGAAACACACGUUGUGGUAUAUUACGUCGUA  0.0397
